± gives the uncertainty stated by the source.
Experiment: protein stability index of a GFP-peptide fusion (yeast GPS) (PSI 1-4); higher = more stable; sorted into four equal gates, so the index is relative within each strain
How it was run: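 For each peptide, the protein stability index sums the read frequency in every gate after multiplying it by the gate number. Read frequencies came from plasmids that were PCR-amplified from each gate and Illumina-sequenced, with reads assigned to strains by barcodes. The gates were four equal bins of GFP/Cherry fluorescence ratio applied to mid-log yeast in leucine-free medium carrying a pooled library of tiled 17-residue yeast protein peptides fused downstream of GFP on a Cherry-expressing plasmid.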

Sequence | protein stability index (doa10∆) | protein stability index (pdr5∆) | protein stability index (san1∆) | protein stability index (ubr1∆)
SYKRIYGEYPPTKLLVS [PRE8] | 2.87 ± 0.083 | 3.03 ± 0.085 | 2.75 ± 0.1 | 3.09 ± 0.06
VLIAQERSAGNIVQVFK [RPB2] | 2.85 ± 0.13 | 3.39 ± 0.23 | 2.97 ± 0.087 | 3.11 ± 0.064
NMMNQVGEEETSQKMKK [SRP54] | 3.33 ± 0.11 | 3.39 ± 0.12 | 3.33 ± 0.076 | 3.23 ± 0.079
GVEEVEGEYELTEAVED [RPL5] | 3.36 ± 0.11 | 3.45 ± 0.13 | 3.24 ± 0.14 | 3.24 ± 0.2
TELLNIYDSEDPQQVFD [RPN3] | 2.88 ± 0.1 | 3.13 ± 0.078 | 3.15 ± 0.084 | 2.87 ± 0.058
PKSTKGKILTIKQQQQQ [YML103C/NUP188] | 2.39 ± 0.038 | 2.59 ± 0.046 | 2.42 ± 0.062 | 2.52 ± 0.04
LLPQWDDDQIESLKKSP [ARP9] | 3.17 ± 0.085 | 3.15 ± 0.061 | 3.1 ± 0.051 | 3.12 ± 0.052
IQELRKLLKSLLLNYLE [MED7] | 1.71 ± 0.056 | 1.24 ± 0.069 | 1.12 ± 0.12 | 1.04 ± 0.1
LIRNVGTNTYRLGEWSK [POP1] | 1.9 ± 0.28 | 1.29 ± 0.22 | 1.12 ± 0.28 | –
SQDTKVICSVTGPIEPK [RRP46] | 1.68 ± 0.07 | 1.72 ± 0.072 | 1.94 ± 0.11 | 2.12 ± 0.076
NFLETIASTEKPENKTD [SIR4] | 2.94 ± 0.1 | 2.93 ± 0.089 | 2.77 ± 0.11 | 3.13 ± 0.092
LWALLNFLLPDIFGDSE [ISW2] | 2.15 ± 0.05 | 1.98 ± 0.05 | 2.52 ± 0.07 | 2.64 ± 0.043
DIQAMCTEAGLLALRER [RPT2] | 2.65 ± 0.088 | 3.33 ± 0.12 | 3.33 ± 0.047 | 3.26 ± 0.055
LNRSHFATTKAECISLI [ECM29] | 1.51 ± 0.061 | 2 ± 0.051 | 1.69 ± 0.092 | 1.66 ± 0.038
DRYGNRYFWLDHNGVPF [ITC1] | 2.8 ± 0.094 | 3.18 ± 0.098 | 2.92 ± 0.051 | 2.78 ± 0.082
EHGMNAPSVPEFIYLTK [SNF2] | 3.21 ± 0.092 | 3.28 ± 0.077 | 2.91 ± 0.069 | 3.15 ± 0.059
DGTAKEVGDEADNTKDK [MED4] | 3.06 ± 0.11 | 3.18 ± 0.12 | 3.34 ± 0.088 | 3.22 ± 0.077
ALNSMCASIPIAIIKDT [RRP46] | 1.48 ± 0.12 | 1.67 ± 0.08 | 1.8 ± 0.097 | 1.79 ± 0.073
NGQEQQGPVKNTQLHGP [RGR1] | 3.02 ± 0.077 | 3.12 ± 0.057 | 3.05 ± 0.052 | 3.1 ± 0.044
LKPSMSVALHRHSNALV [RPT3] | 1.64 ± 0.11 | 2.41 ± 0.15 | 2.51 ± 0.15 | 2.53 ± 0.22
GWDSLASRNVWSFYNGN [SNU114] | 2.99 ± 0.12 | 3.12 ± 0.077 | 3.48 ± 0.05 | 3.22 ± 0.066
FRTDMLQVADKFFRVKY [SMC3] | 1.92 ± 0.068 | 2.49 ± 0.066 | 1.77 ± 0.076 | 2.12 ± 0.051
LGYTHIAINFTVNHSEK [RPP1] | 1.35 ± 0.038 | 1.25 ± 0.036 | 1.56 ± 0.062 | 1.41 ± 0.042
KQNNKDFRTRYIDIRTN [MTW1] | 2.69 ± 0.07 | 2.65 ± 0.072 | 2.31 ± 0.1 | 2.62 ± 0.077
KLLKSLKNTKYFQQTTI [PRP8] | 2.12 ± 0.076 | 2.7 ± 0.085 | 2.34 ± 0.068 | 2.59 ± 0.064
FLYVLIPAGIYWYWWKN [QCR8] | 1.93 ± 0.11 | 1.33 ± 0.13 | 1.62 ± 0.21 | 1.35 ± 0.27

Sequence | protein stability index (doa10∆) | protein stability index (pdr5∆) | protein stability index (san1∆) | protein stability index (ubr1∆)
GRTGNGNMGITTEMLDK [MED6] | 3.23 ± 0.069 | 3.23 ± 0.062 | 3.28 ± 0.047 | 3.27 ± 0.04
LPNIYPSTRCKLKLLRM [RPT2] | 1.33 ± 0.037 | 1.43 ± 0.049 | 1.37 ± 0.076 | 1.59 ± 0.048
LNITTVFSHAQTAVTCE [RPS27A] | 2.38 ± 0.043 | 2.21 ± 0.047 | 2.08 ± 0.063 | 2.09 ± 0.052
LPDEKSDAMSIDEEDKD [YCG1] | 3.04 ± 0.17 | 2.36 ± 0.11 | 2.94 ± 0.12 | 3.06 ± 0.074
FEVEMILMQQQMMARMA [SRP54] | 1.17 ± 0.12 | 1.19 ± 0.076 | 2.34 ± 0.15 | 1.73 ± 0.27
KKSKNGTISKTGKKNKV [SRP14] | 2.93 ± 0.11 | 3.26 ± 0.089 | 3.14 ± 0.059 | 3.51 ± 0.057
DLKIEKLVLNISVGESG [RPL11A] | 2.81 ± 0.12 | 2.66 ± 0.095 | 2.52 ± 0.09 | 1.89 ± 0.09
EDRNKIHQYLFQEGVVV [RPS10A] | 2.37 ± 0.064 | 2.37 ± 0.06 | 1.66 ± 0.12 | 2.61 ± 0.058
NETIIDNFSPHQNVIIG [SMC3] | – | 2.56 ± 0.17 | 2.29 ± 0.13 | –
NLIGVITHQGANSESGH [UBP6] | 2.33 ± 0.12 | 3 ± 0.091 | 3.22 ± 0.069 | 3.07 ± 0.085
DATNTSYKMIQLDAYGE [SWP82] | 3.29 ± 0.087 | 3.39 ± 0.077 | 3.25 ± 0.057 | 3.16 ± 0.05
LKRNSWPKTRGVAMNPV [RPL2A] | 2.95 ± 0.18 | 3.32 ± 0.2 | 3.2 ± 0.16 | 2.83 ± 0.085
NYTKDNEYYPMCEQALS [YCS4] | 2.25 ± 0.066 | 2.61 ± 0.087 | 2.6 ± 0.071 | 2.47 ± 0.052
PNPNNMKTVQSPMGAQP [GAL11] | 3.21 ± 0.13 | 2.96 ± 0.095 | 2.96 ± 0.12 | 2.94 ± 0.075
NYYYLFDKKSFFNGKAL [PRP8] | 2.55 ± 0.046 | 2.16 ± 0.043 | 2.91 ± 0.055 | 2.38 ± 0.037
KYNRYEKRHKNVPVHVS [RPS11A] | 1.61 ± 0.041 | 1.66 ± 0.044 | 1.69 ± 0.092 | 1.94 ± 0.055
NDFFPGEVVYLRKQKDS [ITC1] | 2.03 ± 0.062 | 1.39 ± 0.059 | 1.35 ± 0.12 | 1.48 ± 0.081
KQVQDFEENDHPNRVLE [COR1] | 3.1 ± 0.074 | 3.29 ± 0.1 | 3.19 ± 0.056 | 2.9 ± 0.065
INFERIDEVFSWYLNTF [GRR1] | 2.22 ± 0.058 | 1.91 ± 0.044 | 2.51 ± 0.1 | 1.82 ± 0.051
VLESIVARTFWASKYGQ [BRR2] | 2.74 ± 0.063 | 2.37 ± 0.062 | 2.47 ± 0.096 | 2.61 ± 0.067
MERFSVLCNSNISKSRA [RRP6] | 2.42 ± 0.066 | 2.46 ± 0.096 | 1.98 ± 0.084 | 2.12 ± 0.056
FGATTNDDKKTEPDKPA [YJL041W/NSP1] | 1.55 ± 0.098 | 2.48 ± 0.097 | 2.61 ± 0.15 | 2.65 ± 0.11
LELQVAQAFVELENSSP [RPS7A] | 3.15 ± 0.14 | 3.14 ± 0.15 | 2.92 ± 0.19 | 1.85 ± 0.11
VVEACGNIVAELAQDPQ [YCS4] | 2.75 ± 0.082 | 3.38 ± 0.15 | 3.04 ± 0.1 | 2.12 ± 0.093
KDQYVPEVSALDLSRSN [RPS17A] | 2.16 ± 0.14 | 2.2 ± 0.1 | 2.02 ± 0.12 | 2.2 ± 0.065
TNLYKLKEERAIEPETF [PUP3] | 3.16 ± 0.12 | 2.97 ± 0.13 | 3.45 ± 0.066 | 3.25 ± 0.097
